Source: US12466878 (IMMATICS BIOTECHNOLOGIES, dated 2025)

Molecular target: T1, HLA-A*02:01 (human)
T1 construct: the format of the assay is not described
Experiment: ELISA-based peptide-MHC binding assay (FIG. 5)

binding result: binds
B1: IGF2BP3-001 peptide KIQEILTQV (SEQ ID NO: 1) (peptide)
peptide: KIQEILTQV
